Patent US20020146804

T1: mouse procaspase-14
T1 sequence: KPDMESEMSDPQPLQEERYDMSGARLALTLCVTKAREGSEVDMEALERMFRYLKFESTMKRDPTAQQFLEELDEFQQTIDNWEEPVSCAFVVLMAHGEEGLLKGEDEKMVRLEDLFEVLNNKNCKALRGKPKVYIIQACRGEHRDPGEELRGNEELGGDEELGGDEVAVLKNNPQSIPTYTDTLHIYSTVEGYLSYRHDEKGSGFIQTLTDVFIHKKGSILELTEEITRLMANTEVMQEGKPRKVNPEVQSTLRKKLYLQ

T2: mouse procaspase-14
T2 chain: T1 sequence

B1: cytochrome c-activated caspase-9 in S-100 extract of human embryonic kidney 293 cells (protein)
chain: MDEADRRLLRRCRLRLVEELQVDQLWDALLSRELFRPHMIEDIQRAGSGSRRDQARQLIIDLETRGSQALPLFISCLEDTGQDMLASFLRTNRQAAKLSKPTLENLTPVVLRPEIRKPEVLRPETPRPVDIGSGGFGDVGALESLRGNADLAYILSMEPCGHCLIINNVNFCRESGLRTRTGSNIDCEKLRRRFSSLHFMVEVKGDLTAKKMVLALLELAQQDHGALDCCVVVILSHGCQASHLQFPGAVYGTDGCPVSVEKIVNIFNGTSCPSLGGKPKLFFIQACGGEQKDHGFEVASTSPEDESPGSNPEPDATPFQEGLRTFDQLDAISSLPTPSDIFVSYSTFPGFVSWRDPKSGSWYVETLDDIFEQWAHSEDLQSLLLRVANAVSVKGIYKQMPGCFNFLRKKLFFKTS
B2: cytochrome c-activated caspase-3 in S-100 extract of human embryonic kidney 293 cells (protein)
chain: SGISLDNSYKMDYPEMGLCIIINNKNFHKSTGMTSRSGTDVDAANLRETFRNLKYEVRNKNDLTREEIVELMRDVSKEDHSKRSSFVCVLLSHGEEGIIFGTNGPVDLKKITNFFRGDRCRSLTGKPKLFIIQACRGTELDCGIETDSGVDDDMACHKIPVEADFLYAYSTAPGYYSWRNSKDGSWFIQSLCAMLKQYADKLEFMHILTRVNRKVATEFESFSFDATFHAKKQIPCIVSMLTKELYFYH
B3: cytochrome c-activated caspase-7 in S-100 extract of human embryonic kidney 293 cells (protein)
chain: AKPDRSSFVPSLFSKKKKNVTMRSIKTTRDRVPTYQYNMNFEKLGKCIIINNKNFDKVTGMGVRNGTDKDAEALFKCFRSLGFDVIVYNDCSCAKMQDLLKKASEEDHTNAACFACILLSHGEENVIYGKDGVTPIKDLTAHFRGDRCKTLLEKPKLFFIQACRGTELDDGIQADSGPINDTDANPRYKIPVEADFLFAYSTVPGYYSWRSPGRGSWFVQALCSILEEHGKDLEIMQILTRVNDRVARHFESQSDDPHFHEKKQIPCVVSMLTKELYFSQ
B4: cytochrome c-activated caspase-6 in S-100 extract of human embryonic kidney 293 cells (protein)
chain: AFYKREMFDPAEKYKMDHRRRGIALIFNHERFFWHLTLPERRGTCADRDNLTRRFSDLGFEVKCFNDLKAEELLLKIHEVSTVSHADADCFVCVFLSHGEGNHIYAYDAKIEIQTLTGLFKGDKCHSLVGKPKIFIIQACRGNQHDVPVIPLDVVDNQTEKLDTNITEVDAASVYTLPAGADFLMCYSVAEGYYSHRETVNGSWYIQDLCEMLGKYGSSLEFTELLTLVNRKVSQRRVDFCKDPSAIGKKQVPCFASMLTKKLHFFPKSN

How the values were obtained:
[1] = test system: T1, mouse procaspase-14
[2] = target: T2, mouse procaspase-14

Row | Molecule | processing (cleavage) of 35S labeled procaspase-14, SDS-PAGE and autoradiography [1] | cleavage/activation of 35S labeled procaspase-14 in S-100 extracts activated by cytochrome c and dATP, SDS-PAGE and autoradiography [2]
1 | purified recombinant caspase-8 | a significant amount of processing was observed when procaspase-14 was incubated with Granzyme B, caspase-10 and caspase-8, but not with other caspases | –
2 | purified recombinant caspase-14 | Some processing was also observed with recombinant caspase-14 itself | –
3 | purified Granzyme B | a significant amount of processing was observed when procaspase-14 was incubated with Granzyme B, caspase-10 and caspase-8, but not with other caspases | –
4 | purified recombinant caspase-10 | a significant amount of processing was observed when procaspase-14 was incubated with Granzyme B, caspase-10 and caspase-8, but not with other caspases | –
5 | B1 | – | no cleavage/activation of ^35S labeled procaspase-14 was observed in S-100 extracts activated by cytochrome c and dATP
6 | B2 | – | no cleavage/activation of ^35S labeled procaspase-14 was observed in S-100 extracts activated by cytochrome c and dATP
7 | B3 | – | no cleavage/activation of ^35S labeled procaspase-14 was observed in S-100 extracts activated by cytochrome c and dATP
8 | B4 | – | no cleavage/activation of ^35S labeled procaspase-14 was observed in S-100 extracts activated by cytochrome c and dATP
